Laboratory results: article PMC12474298

Molecular target: HaHV1 UL36h NLS peptide (residues 1491-1500), FITC/Ahx-labelled (haliotid herpesvirus 1 (HaHV1))
Assay: fluorescence polarisation

Substance	Kd [nM]
human importin α1 lacking the importin-β binding domain (hIMPα1ΔIBB) (domain or fragment)	226
human importin α3 lacking the importin-β binding domain (hIMPα3ΔIBB) (domain or fragment)	193
